Measured values reported in article PMC3433786 (The EMBO Journal, 2012).
Residue numbers refer to the chain shown, from its start. Names and notes keep the numbering of the source.

Columns and labels:
AUC = biological target: the molecule itself; test: AUC
crystal structure = biological target: the molecule itself; test: crystal structure
SEC-MALS = biological target: the molecule itself; test: SEC-MALS

B1: mouse stomatin domain (amino acids 86–213), stomatin^86–213 (domain or fragment, UniProt P54116 86-213, looked up)
chain: PSTDSLIKVDMRTISFDIPPQEVLTKDSVTISVDGVVYYRVQNATLAVANITNADSATRLLAQTTLRNALGTKNLSQILSDREEIAHHMQSTLDDATDDWGIKVERVEIKDVKLPVQLQRAMAAEAEA
Question: Which Kd (AUC) does the source give for B1 here?
Answer: 37 µM

B2: stomatin^86–213 LI91,92AA (domain or fragment, mouse, UniProt P54116 86-213, looked up)
chain: B1 chain with L6A, I7A
Question: Does B2 bind (crystal structure)?
Answer: binds

B3: stomatin^86–213 R97D, L109D, L145D (domain or fragment, mouse, UniProt P54116 86-213, looked up)
chain: B1 chain with R12D, L24D, L60D
Question: Does B3 bind (SEC-MALS)?
Answer: binds

B4: stomatin^86–213 T182W (domain or fragment, mouse, UniProt P54116 86-213, looked up)
chain: B1 chain with T97W
Question: Does B4 bind (SEC-MALS)?
Answer: binds

B5: stomatin^86–213 L109D,L145D (domain or fragment, mouse, UniProt P54116 86-213, looked up)
chain: B1 chain with L24D, L60D
Question: Does B5 bind (SEC-MALS)?
Answer: binds
